± gives the uncertainty stated by the source.
B1: Pre-mRNA-processing factor 40 homolog B, residues 274 to 332; numbered along this chain, Q6NWY9 (parent)
chain: SNREKAKQAFKELLRDKAVPSNASWEQAMKMVVTDPRYSALPKLSEKKQAFNAYKAQRE

Variants of: B1
Assay: abundance fitness (aPCA) (normalised: wild type 0, dead -1); higher = more abundant; growth selection in yeast, the domain comes from the species named
Conditions: Homo sapiens
In the case of S39R, the abundance fitness is reported as 0.032 ± 0.061. In the case of S39P, the abundance fitness is reported as -0.527 ± 0.14. Variant S39N has an abundance fitness of 0.333 ± 0.17. With S39A the abundance fitness was -0.02 ± 0.068. With S39L the abundance fitness was -0.342 ± 0.084. With S39C the abundance fitness was -0.141 ± 0.094. For S39K, the abundance fitness was -0.228 ± 0.14. S39D showed an abundance fitness of -0.068 ± 0.11. Variant S39T has an abundance fitness of -0.099 ± 0.095. In the case of S39G, the abundance fitness is reported as -0.071 ± 0.068. With S39H the abundance fitness was 0.098 ± 0.11. For S39M, the abundance fitness was -0.053 ± 0.19. With S39E the abundance fitness was 0.102 ± 0.11. S39Y showed an abundance fitness of -0.247 ± 0.12. S39Q gave an abundance fitness of -0.191 ± 0.16. In the case of S39W, the abundance fitness is reported as -0.278 ± 0.1. A28I gave an abundance fitness of -0.595 ± 0.071. Work on A28T yielded an abundance fitness of -0.299 ± 0.054. Work on A28M yielded an abundance fitness of -0.576 ± 0.062. In the case of A28N, the abundance fitness is reported as -0.445 ± 0.077. Variant A28Q has an abundance fitness of -0.313 ± 0.065. With A28R the abundance fitness was -0.607 ± 0.05. A28G gave an abundance fitness of -0.48 ± 0.055. With A28L the abundance fitness was -0.684 ± 0.048. For A28V, the abundance fitness was -0.277 ± 0.056. A28E showed an abundance fitness of -0.431 ± 0.074. For A28W, the abundance fitness was -0.71 ± 0.068. A28D showed an abundance fitness of -0.473 ± 0.072. A28K showed an abundance fitness of -0.524 ± 0.063. With A28H the abundance fitness was -0.583 ± 0.067. Variant A28S has an abundance fitness of -0.413 ± 0.05. With A28F the abundance fitness was -0.563 ± 0.068. P36F gave an abundance fitness of -0.307 ± 0.13. In the case of P36M, the abundance fitness is reported as -0.607 ± 0.1. In the case of P36W, the abundance fitness is reported as -0.669 ± 0.092. P36A showed an abundance fitness of -0.19 ± 0.076. With P36N the abundance fitness was -0.418 ± 0.17. Work on P36D yielded an abundance fitness of -0.049 ± 0.1. P36T gave an abundance fitness of -0.293 ± 0.1. Work on P36C yielded an abundance fitness of -0.381 ± 0.11. For P36Y, the abundance fitness was -0.806 ± 0.13. Work on P36Q yielded an abundance fitness of -0.289 ± 0.13. Variant P36V has an abundance fitness of -0.353 ± 0.074. Work on P36S yielded an abundance fitness of -0.366 ± 0.075. For P36E, the abundance fitness was -0.103 ± 0.086. Work on P36L yielded an abundance fitness of -0.63 ± 0.07. Variant P36G has an abundance fitness of -0.391 ± 0.059. In the case of P36H, the abundance fitness is reported as -0.445 ± 0.21. P36R showed an abundance fitness of -0.24 ± 0.064. E26S gave an abundance fitness of -0.229 ± 0.089. E26A showed an abundance fitness of -0.31 ± 0.091. Work on E26I yielded an abundance fitness of -0.547 ± 0.15. For E26R, the abundance fitness was -0.719 ± 0.093. E26P gave an abundance fitness of -0.149 ± 0.099. E26V showed an abundance fitness of -0.364 ± 0.083. E26M showed an abundance fitness of -0.325 ± 0.19. E26T showed an abundance fitness of -0.006 ± 0.13. Variant E26H has an abundance fitness of -0.237 ± 0.22. For E26Q, the abundance fitness was -0.412 ± 0.16. In the case of E26F, the abundance fitness is reported as -0.729 ± 0.16. Variant E26G has an abundance fitness of -0.274 ± 0.067. With E26Y the abundance fitness was -0.581 ± 0.14. In the case of E26D, the abundance fitness is reported as -0.019 ± 0.12. E26W showed an abundance fitness of -0.598 ± 0.11. E26K showed an abundance fitness of -0.169 ± 0.13. For E26L, the abundance fitness was -0.362 ± 0.088. With A40C the abundance fitness was -0.129 ± 0.2. For T34I, the abundance fitness was -0.611 ± 0.11. T34S gave an abundance fitness of 0.003 ± 0.068. With T34Y the abundance fitness was -0.23 ± 0.11. T34W gave an abundance fitness of -0.544 ± 0.083. T34E gave an abundance fitness of -0.039 ± 0.09. For T34M, the abundance fitness was -0.071 ± 0.089. In the case of T34N, the abundance fitness is reported as 0.232 ± 0.12. Work on T34F yielded an abundance fitness of -0.382 ± 0.15. T34Q showed an abundance fitness of -0.015 ± 0.1. For T34A, the abundance fitness was 0.028 ± 0.061. T34R showed an abundance fitness of -0.257 ± 0.06. T34H gave an abundance fitness of 0.043 ± 0.12. In the case of T34V, the abundance fitness is reported as -0.419 ± 0.073. With T34L the abundance fitness was -0.358 ± 0.066. For T34P, the abundance fitness was -0.554 ± 0.11. T34G gave an abundance fitness of 0.108 ± 0.059.
